This is an account of results in patent publication US20210062263A1, “A CLINICAL […]” (priority 2016, published 2021).

Holding throughout (format): cell-based, human
The subject of data set [1] is normal fibroblasts. In words: qRT-PCR relative gene expression in normal fibroblasts. The procedure: (§1) Normal and keloid tissue samples were collected from 11 patients and were used to establish primary fibroblast cultures. Using these fibroblasts, qRT-PCR for relative gene expressions and enzyme-linked immunosorbent assay (ELISA) for relative protein expressions were performed. Fibroblasts were also treated with 200 pM activin for 24 hours to examine the effects on fibrosis-related genes.
(§2) Normal and keloid tissue samples were collected from 11 patients and used to establish primary fibroblast cell cultures as described in Example 1. Relative expressions of fibrosis-related genes were examined using qRT-PCR. Protein levels of activin and follistatin, an activin-antagonist, were also measured by ELISA and radioimmunoassay in lysates of dermal fibroblasts. Furthermore, keloid fibroblasts were treated with 1 nM follistatin for 24 hours to examine the effects on fibrosis-related genes.
(§3) Normal and keloid fibroblasts were isolated and cultured from a patient. Relative expressions of fibrosis-related genes were examined using qRT-PCR. Protein levels of activin and follistatin were also measured by ELISA and radioimmunoassay in dermal fibroblasts as described in Example 2. Furthermore, keloid fibroblasts were daily treated with 1 nM follistatin for 1, 3 and 5 days to examine the effects on fibrosis-related genes.
(§4) Normal and keloid fibroblasts were isolated and cultured in vitro using standard fibroblast cell culture protocols. Relative gene expressions were examined using qRT-PCR. Protein levels of activin and follistatin were also measured in dermal fibroblasts by enzyme-linked immunosorbent assay and radioimmunoassay respectively. Cells were also treated with 100 ng/ml follistatin for 5 days to examine the effects on the expression of fibrosis-related genes.
(§5) The upregulation of CTGF by activin A was also confirmed in the multiple patient samples (FIG. 8n).
(§6) To investigate the role of AP1 in keloid pathogenesis, fibroblasts were treated for 3 days with SR11302, an inhibitor of AP1 activity. […] Moreover, in order to examine the effects of FST288, fibroblasts were treated for 3 days or 5 days.
(In general: Quantitative PCR measures a nucleic acid by following its amplification.)

Data set [2] deals with normal fibroblasts. In words: Activin A protein in cell lysate and media of normal fibroblasts. The settings on record: after treatment with AP1 inhibitor. Here is the method:
as §1, §4, §6

For data set [3], the system named is keloid fibroblasts. In words: Activin A protein in cell lysate and media of keloid fibroblasts. The following applies: after treatment with AP1 inhibitor. Here is the method:
as §1, §4, §6

Data set [4] relates to normal fibroblasts. In words: Tolerance of normal fibroblasts in culture (cell death). The following applies: 3 days. Here is the method: as §6
In data set [5] the test system is keloid fibroblasts. As to the kind of experiment: qRT-PCR relative gene expression in keloid fibroblasts. Here is the method:
as §1, §2, §3, §4, §5, §6

Data set [6] deals with keloid fibroblasts. In words: Tolerance of keloid fibroblasts in culture (cell death). The following applies: 3 days. The procedure:
as §6

Data set [7] relates to keloid fibroblasts. In words: RNA sequencing of keloid fibroblast cultures with/without follistatin. The following applies: single follistatin treatment. The procedure: RNAseq was performed with/without a single follistatin treatment on normal and keloid fibroblast cultures on day 1 and day 5 (FIG. 7) to compare the extent of gene expression changes in keloid disease.
[8] abbreviates: SR11302 10 uM and 15 uM, 3 days.
Where [9] appears, read: daily 1 nM follistatin, five days.

Entries after “also recorded” stand apart in the source; their conditions may differ.

In the case of `CC1=C(/C=C/C(=C/C=C/C(C)=C/C(=O)O)c2ccc(C)cc2)C(C)(C)CCC1` [SR11302], the CTGF gene expression result in the data set on normal fibroblasts [1] (setting [8]) and with keloid fibroblasts [5] (setting [8]) was “significantly decreased” each time. For the same molecule, the INHBA gene expression result with normal fibroblasts [1] (setting [8]) and in the data set on keloid fibroblasts [5] (setting [8]) was “significantly decreased” throughout. For the same molecule, the “activin A protein in cell lysate and media” value with normal fibroblasts [2] and in the data set with keloid fibroblasts [3] was “significantly decreased” throughout. Moreover, the “doses resulting in cell death” value with normal fibroblasts [4] and in the data set with keloid fibroblasts [6] was “higher than 20 uM” throughout.

B1: activin A: dimeric protein of the TGF-β superfamily, added exogenously at 200 pM (protein, UniProt P08476 311-426, looked up)
Inhibin beta A chain: GLECDGKVNICCKKQFFVSFKDIGWNDWIIAPSGYHANYCEGECPSHIAGTSGSSLSFHSTVINHYRMRGHSPFANLKSCCVPTKLRPMSMLYYDDGQNIIKKDIQNMIVEECGCS
modifications: Inhibin beta A chain homodimer
notes: dimeric protein of the TGF-β superfamily, added exogenously at 200 pM
Consider B1, for which, in the data set with normal fibroblasts [1] (200 pM activin A, 24 hours), the CTGF gene expression result was “significantly upregulated”, the FOSB gene expression entry is “significantly upregulated”, the IL6 gene expression result was “significantly upregulated” and the “INHBA (activin A) gene expression” value is on record as “significantly upregulated”. Further, in the data set with normal fibroblasts [1] (200 pM activin A, 24 hours), the JUNB gene expression result is “significantly upregulated”, the PAI1 gene expression entry was “significantly upregulated” and the TGFB2 gene expression entry is recorded as “significantly upregulated”. Further, in the data set on keloid fibroblasts [5] (200 pM activin A, 24 hours), the CTGF gene expression result was “significantly upregulated”, the FOSB gene expression entry was “significantly upregulated”, the IL6 gene expression entry is “significantly upregulated” and the “INHBA (activin A) gene expression” value is recorded as “further significant upregulation; also recorded: significantly upregulated”. In addition, in the data set on keloid fibroblasts [5] (200 pM activin A, 24 hours), the JUNB gene expression result was “significantly upregulated”, the PAI1 gene expression entry is “significantly upregulated” and the TGFB2 gene expression result was “significantly upregulated”. For the same molecule, the “CTGF expression in fibroblasts from multiple patients” value with keloid fibroblasts [5] (200 pM activin A, multiple patient samples (normal/keloid not distinguished)) is “upregulation; also recorded: increased”.

B2: follistatin: an activin-antagonist protein; isoform not stated in these examples (protein, UniProt P19883 30-344, looked up)
Follistatin: GNCWLRQAKNGRCQVLYKTELSKEECCSTGRLSTSWTEEDVNDNTLFKWMIFNGGAPNCIPCKETCENVDCGPGKKCRMNKKNKPRCVCAPDCSNITWKGPVCGLDGKTYRNECALLKARCKEQPELEVQYQGRCKKTCRDVFCPGSSTCVVDQTNNAYCVTCNRICPEPASSEQYLCGNDGVTYSSACHLRKATCLLGRSIGLAYEGKCIKAKSCEDIQCTGGKKCLWDFKVGRGRCSLCDELCPDSKSDEPVCASDNATYASECAMKEAACSSGVLLEVKHSGSCNSISEDTEEEEEDEDQDYSFPISSILEW
Regarding B2, in the data set with keloid fibroblasts [5] (1 nM follistatin, 24 hours), the CTGF gene expression entry was “significantly decreased” and the “activin A gene expression” value is “significantly decreased”. In addition, in the data set with keloid fibroblasts [5] (100 ng/ml follistatin, vs controls), the “CTGF (downstream target of activins) expression” value is “declined significantly”. Besides, the “activin A expression of the gene and its protein” value with keloid fibroblasts [5] (after treatment with follistatin (summary of Examples 1 to 3)) is “significant downregulation”. In the data set with keloid fibroblasts [5] (setting [9]), the CTGF gene expression result is “significantly decreased” and the “activin A gene expression” value is recorded as “significantly decreased”. In addition, the “activin A gene expression” value with keloid fibroblasts [5] (single treatment, 100 ng/ml follistatin) is reported as “significantly decreased”. Also, the “INHBA expression (RNAseq)” value in the data set with keloid fibroblasts [7] (5 days, 100 ng/ml) is on record as “diminished”. In the data set with keloid fibroblasts [7] (day 5, 100 ng/ml), the “CTGF expression (RNAseq)” value is “significantly decreased”, the “PAI1 expression (RNAseq)” value is recorded as “significantly decreased” and the “other matrix related genes (RNAseq)” value is given as “downregulated”.
